PMC4072346

B1: PHLPP1 (Homo sapiens) (protein)
chain: PRLVLDHKTLELLNNIRCFKIDQPSTGDASGAPAVWSHGYTEASGVKNKLCVAALSVNNFCDNREALYGVFDGDRNVEVPYLLQCTMSDILAEELQKTKNEEEYMVNTFIVMQRKLGTAGQKLGGAAVLCHIKHDPVDPGGSFTLTSANVGKCQTVLCRNGKPLPLSRSYIMSCEEELKRIKQHKAIITEDGKVNGVTESTRILGYTFLHPSVVPRPHVQSVLLTPQDEFFILGSKGLWDSLSVEEAVEAVRNVPDALAAAKKLCTLAQSYGCHDSISAVVVQLSVTEDSFCCCELSAGGAVPPPSPGIFPPSVNMVIKDRPSDGLGVPSSSSGMASEISSELSTSEMSSEVGSTASDEPPPGA
B2: PHLPP2 (Homo sapiens) (protein)
chain: SHGLAEMAGQRNKLCVSALAMDSFAEGVGAVYGMFDGDRNEELPRLLQCTMADVLLEEVQQSTNDTVFMANTFLVSHRKLGMAGQKLGSSALLCYIRPDTADPASSFSLTVANVGTCQAVLCRGGKPVPLSKVFSLEQDPEEAQRVKDQKAIITEDNKVNGVTCCTRMLGCTYLYPWILPKPHISSTPLTIQDELLILGNKALWEHLSYTEAVNAVRHVQDPLAAAKKLCTLAQSYGCQDNVGAMVVYL

Substrate: O=[N+]([O-])c1ccc(OP(=O)(O)O)cc1
Assay: purified protein
Type: biochemical, Homo sapiens
Conditions: pH 7.5

| Protein | Km | kcat [s⁻¹] | kcat/Km [M⁻¹ s⁻¹] |
| --- | --- | --- | --- |
| B1 | (2.1 ± 0.2) × 10^–3 M | 0.0018 ± 0.0003 | 0.9 ± 0.2 |
| B2 | (1.3 ± 0.2) × 10^–3 M | 0.37 ± 0.08 | 285 ± 9 |
